The source of these data is PMC2630774 (FEBS letters, 2008).

To fix the notation:
T1: AhR (aryl hydrocarbon receptor), baculovirus expressed 6His fusion (human, UniProt P35869 11-848)
T1 sequence (looked up): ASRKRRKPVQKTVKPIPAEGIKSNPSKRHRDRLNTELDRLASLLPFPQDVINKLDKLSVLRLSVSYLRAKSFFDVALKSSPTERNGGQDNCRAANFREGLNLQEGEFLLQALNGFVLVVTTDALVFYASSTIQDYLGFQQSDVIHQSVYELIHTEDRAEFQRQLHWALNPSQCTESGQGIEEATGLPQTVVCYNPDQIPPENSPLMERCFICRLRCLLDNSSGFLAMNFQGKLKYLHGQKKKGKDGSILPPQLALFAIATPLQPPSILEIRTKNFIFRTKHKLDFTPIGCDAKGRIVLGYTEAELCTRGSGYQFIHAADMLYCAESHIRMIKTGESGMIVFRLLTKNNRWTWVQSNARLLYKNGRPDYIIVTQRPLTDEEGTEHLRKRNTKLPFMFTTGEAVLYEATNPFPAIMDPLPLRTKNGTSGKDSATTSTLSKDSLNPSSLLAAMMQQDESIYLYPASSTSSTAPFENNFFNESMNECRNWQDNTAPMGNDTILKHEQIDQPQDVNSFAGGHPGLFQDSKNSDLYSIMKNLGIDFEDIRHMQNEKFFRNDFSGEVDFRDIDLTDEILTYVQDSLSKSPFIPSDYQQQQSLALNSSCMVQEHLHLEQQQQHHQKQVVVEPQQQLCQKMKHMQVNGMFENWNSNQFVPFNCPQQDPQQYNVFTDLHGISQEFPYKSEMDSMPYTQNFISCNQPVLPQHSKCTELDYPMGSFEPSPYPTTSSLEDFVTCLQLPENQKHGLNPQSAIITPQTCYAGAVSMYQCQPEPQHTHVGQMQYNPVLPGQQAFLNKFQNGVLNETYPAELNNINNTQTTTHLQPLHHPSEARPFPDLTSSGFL

B1: Arnt (AhR nuclear translocator), baculovirus expressed 6His fusion (natural protein)
chain: not shown
B2: 32P-CΔ553 (AhR deletion construct with C-terminal 553 amino acids deleted, thioredoxin released, 32P-labelled) (domain or fragment, human, UniProt P35869 1-295, looked up)
chain: MNSSSANITYASRKRRKPVQKTVKPIPAEGIKSNPSKRHRDRLNTELDRLASLLPFPQDVINKLDKLSVLRLSVSYLRAKSFFDVALKSSPTERNGGQDNCRAANFREGLNLQEGEFLLQALNGFVLVVTTDALVFYASSTIQDYLGFQQSDVIHQSVYELIHTEDRAEFQRQLHWALNPSQCTESGQGIEEATGLPQTVVCYNPDQIPPENSPLMERCFICRLRCLLDNSSGFLAMNFQGKLKYLHGQKKKGKDGSILPPQLALFAIATPLQPPSILEIRTKNFIFRTKHKLDF
modifications: 32P-phosphate (HMK phosphorylation using 32P-gamma ATP; residue not stated)
B3: unlabelled CΔ553 (AhR deletion construct with C-terminal 553 amino acids deleted, without thioredoxin fusion) (domain or fragment, human, UniProt P35869 1-295, looked up)
chain: B2 chain
B4: TH-CΔ553 (thioredoxin fusion of CΔ553, a deletion construct of human AhR) (domain or fragment, UniProt P35869 1-295, looked up)
chain: B2 chain

The target of experiment [1] is T1, AhR (aryl hydrocarbon receptor), …. Briefly: native gel or EMSA. In general terms: A gel shift assay detects complexes by their altered migration in electrophoresis.
Experiment [2] concerns the target B1. Put plainly: co-IP.
In experiment [3] the target is B1. Put plainly: native gel or EMSA.

Take B1: the binding result in experiment [1] is “binds”. Consider B2, for which the binding result in experiment [2] is “binds”.

On to B3, for which the binding result in experiment [3] is given as “binds”. On the same count and under the same terms, in the case of B4 it was “binds”.
